Results: the Human Domainome abundance scans (Beltran et al. 2025)
± gives the uncertainty stated by the source.

B1: Endonuclease CUE2, residues 9 to 47; numbered along this chain, P36075 (parent)
chain: HESKLSILMDMFPAISKSKLQVHLLENNNDLDLTIGLLL

Variants of: B1
Test: abundance fitness (aPCA) (normalised: wild type 0, dead -1); higher = more abundant; growth selection in yeast, the domain comes from the species named
Conditions: Saccharomyces cerevisiae (strain ATCC 204508 / S288c)

| Variant | abundance fitness |
| --- | --- |
| HESWLSILMDMFPAISKSKLQVHLLENNNDLDLTIGLLL | -0.572 ± 0.057 |
| HESPLSILMDMFPAISKSKLQVHLLENNNDLDLTIGLLL | -0.16 ± 0.059 |
| HESGLSILMDMFPAISKSKLQVHLLENNNDLDLTIGLLL | -0.241 ± 0.033 |
| HESDLSILMDMFPAISKSKLQVHLLENNNDLDLTIGLLL | 0.115 ± 0.059 |
| HESHLSILMDMFPAISKSKLQVHLLENNNDLDLTIGLLL | 0.098 ± 0.19 |
| HESNLSILMDMFPAISKSKLQVHLLENNNDLDLTIGLLL | -0.023 ± 0.1 |
| HESQLSILMDMFPAISKSKLQVHLLENNNDLDLTIGLLL | -0.023 ± 0.052 |
| HESSLSILMDMFPAISKSKLQVHLLENNNDLDLTIGLLL | -0.001 ± 0.065 |
| HESELSILMDMFPAISKSKLQVHLLENNNDLDLTIGLLL | -0.011 ± 0.034 |
| HESCLSILMDMFPAISKSKLQVHLLENNNDLDLTIGLLL | -0.061 ± 0.061 |
| HESMLSILMDMFPAISKSKLQVHLLENNNDLDLTIGLLL | 0.188 ± 0.11 |
| HESYLSILMDMFPAISKSKLQVHLLENNNDLDLTIGLLL | 0.127 ± 0.21 |
| HESLLSILMDMFPAISKSKLQVHLLENNNDLDLTIGLLL | -0.13 ± 0.047 |
| HESRLSILMDMFPAISKSKLQVHLLENNNDLDLTIGLLL | -0.038 ± 0.035 |
| HESALSILMDMFPAISKSKLQVHLLENNNDLDLTIGLLL | -0.117 ± 0.04 |
| HESVLSILMDMFPAISKSKLQVHLLENNNDLDLTIGLLL | -0.37 ± 0.047 |
| HESILSILMDMFPAISKSKLQVHLLENNNDLDLTIGLLL | -0.127 ± 0.17 |
| HESFLSILMDMFPAISKSKLQVHLLENNNDLDLTIGLLL | -0.259 ± 0.086 |
| HESKLSIGMDMFPAISKSKLQVHLLENNNDLDLTIGLLL | -0.913 ± 0.065 |
| HESKLSISMDMFPAISKSKLQVHLLENNNDLDLTIGLLL | -0.915 ± 0.23 |
| HESKLSIKMDMFPAISKSKLQVHLLENNNDLDLTIGLLL | -0.968 ± 0.15 |
| HESKLSIQMDMFPAISKSKLQVHLLENNNDLDLTIGLLL | -0.96 ± 0.33 |

| Variant | abundance fitness |
| --- | --- |
| HESKLSIVMDMFPAISKSKLQVHLLENNNDLDLTIGLLL | -0.596 ± 0.046 |
| HESKLSIFMDMFPAISKSKLQVHLLENNNDLDLTIGLLL | -0.701 ± 0.18 |
| HESKLSIRMDMFPAISKSKLQVHLLENNNDLDLTIGLLL | -0.883 ± 0.084 |
| HESKLSIAMDMFPAISKSKLQVHLLENNNDLDLTIGLLL | -1.02 ± 0.18 |
| HESKLSIWMDMFPAISKSKLQVHLLENNNDLDLTIGLLL | -0.947 ± 0.13 |
| HESKLSIMMDMFPAISKSKLQVHLLENNNDLDLTIGLLL | -0.631 ± 0.12 |
| HESKLSIDMDMFPAISKSKLQVHLLENNNDLDLTIGLLL | -1.16 ± 0.42 |
| HESKLSIEMDMFPAISKSKLQVHLLENNNDLDLTIGLLL | -0.931 ± 0.09 |
| HGSKLSILMDMFPAISKSKLQVHLLENNNDLDLTIGLLL | -0.11 ± 0.039 |
| HKSKLSILMDMFPAISKSKLQVHLLENNNDLDLTIGLLL | 0.153 ± 0.042 |
| HMSKLSILMDMFPAISKSKLQVHLLENNNDLDLTIGLLL | 0.19 ± 0.061 |
| HDSKLSILMDMFPAISKSKLQVHLLENNNDLDLTIGLLL | -0.133 ± 0.2 |
| HLSKLSILMDMFPAISKSKLQVHLLENNNDLDLTIGLLL | 0.109 ± 0.04 |
| HRSKLSILMDMFPAISKSKLQVHLLENNNDLDLTIGLLL | 0.13 ± 0.045 |
| HNSKLSILMDMFPAISKSKLQVHLLENNNDLDLTIGLLL | 0.167 ± 0.078 |
| HSSKLSILMDMFPAISKSKLQVHLLENNNDLDLTIGLLL | -0.319 ± 0.067 |
| HTSKLSILMDMFPAISKSKLQVHLLENNNDLDLTIGLLL | 0.157 ± 0.054 |
| HISKLSILMDMFPAISKSKLQVHLLENNNDLDLTIGLLL | 0.14 ± 0.051 |
| HWSKLSILMDMFPAISKSKLQVHLLENNNDLDLTIGLLL | -0.349 ± 0.068 |
| HQSKLSILMDMFPAISKSKLQVHLLENNNDLDLTIGLLL | 0.113 ± 0.042 |
| HPSKLSILMDMFPAISKSKLQVHLLENNNDLDLTIGLLL | -0.035 ± 0.066 |
| HVSKLSILMDMFPAISKSKLQVHLLENNNDLDLTIGLLL | -0.195 ± 0.039 |

| Variant | abundance fitness |
| --- | --- |
| HCSKLSILMDMFPAISKSKLQVHLLENNNDLDLTIGLLL | 0.283 ± 0.11 |
| HEEKLSILMDMFPAISKSKLQVHLLENNNDLDLTIGLLL | -0.106 ± 0.043 |
| HEAKLSILMDMFPAISKSKLQVHLLENNNDLDLTIGLLL | -0.156 ± 0.04 |
| HEQKLSILMDMFPAISKSKLQVHLLENNNDLDLTIGLLL | -0.057 ± 0.051 |
| HELKLSILMDMFPAISKSKLQVHLLENNNDLDLTIGLLL | -0.184 ± 0.048 |
| HETKLSILMDMFPAISKSKLQVHLLENNNDLDLTIGLLL | -0.344 ± 0.063 |
| HEHKLSILMDMFPAISKSKLQVHLLENNNDLDLTIGLLL | 0.014 ± 0.068 |
| HEVKLSILMDMFPAISKSKLQVHLLENNNDLDLTIGLLL | -0.329 ± 0.047 |
| HERKLSILMDMFPAISKSKLQVHLLENNNDLDLTIGLLL | -0.329 ± 0.04 |
| HEPKLSILMDMFPAISKSKLQVHLLENNNDLDLTIGLLL | -0.453 ± 0.12 |
| HEMKLSILMDMFPAISKSKLQVHLLENNNDLDLTIGLLL | -0.042 ± 0.073 |
| HEKKLSILMDMFPAISKSKLQVHLLENNNDLDLTIGLLL | -0.094 ± 0.097 |
| HEWKLSILMDMFPAISKSKLQVHLLENNNDLDLTIGLLL | -0.428 ± 0.054 |
| HEGKLSILMDMFPAISKSKLQVHLLENNNDLDLTIGLLL | -0.145 ± 0.036 |
| HECKLSILMDMFPAISKSKLQVHLLENNNDLDLTIGLLL | -0.146 ± 0.38 |
| HESKLSILMSMFPAISKSKLQVHLLENNNDLDLTIGLLL | -0.299 ± 0.056 |
| HESKLSILMQMFPAISKSKLQVHLLENNNDLDLTIGLLL | -0.183 ± 0.064 |
| HESKLSILMCMFPAISKSKLQVHLLENNNDLDLTIGLLL | -0.123 ± 0.11 |
| HESKLSILMLMFPAISKSKLQVHLLENNNDLDLTIGLLL | -0.441 ± 0.051 |
| HESKLSILMPMFPAISKSKLQVHLLENNNDLDLTIGLLL | -0.587 ± 0.12 |
